Values of other authors, collected in paper PMC3253018.

Molecular target: NiV-G attachment glycoprotein (Nipah virus) (UniProt Q9IH62)
Sequence (Q9IH62 whole entry): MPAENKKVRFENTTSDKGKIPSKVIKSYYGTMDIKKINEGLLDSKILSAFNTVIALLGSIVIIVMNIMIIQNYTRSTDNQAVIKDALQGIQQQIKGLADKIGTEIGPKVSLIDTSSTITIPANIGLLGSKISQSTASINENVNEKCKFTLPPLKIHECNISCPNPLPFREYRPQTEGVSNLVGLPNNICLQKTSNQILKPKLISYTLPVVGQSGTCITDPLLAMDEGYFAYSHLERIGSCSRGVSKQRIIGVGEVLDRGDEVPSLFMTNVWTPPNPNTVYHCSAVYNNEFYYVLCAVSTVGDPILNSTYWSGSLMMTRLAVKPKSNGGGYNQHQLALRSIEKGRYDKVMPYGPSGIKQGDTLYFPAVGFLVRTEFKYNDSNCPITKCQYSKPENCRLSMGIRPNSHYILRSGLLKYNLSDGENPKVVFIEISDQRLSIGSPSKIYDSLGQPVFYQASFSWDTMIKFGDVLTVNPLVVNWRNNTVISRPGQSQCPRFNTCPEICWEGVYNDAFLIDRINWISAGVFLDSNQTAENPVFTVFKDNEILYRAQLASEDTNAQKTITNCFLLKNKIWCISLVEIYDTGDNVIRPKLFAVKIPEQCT

ephrinB2, sequence (P52799 28-333): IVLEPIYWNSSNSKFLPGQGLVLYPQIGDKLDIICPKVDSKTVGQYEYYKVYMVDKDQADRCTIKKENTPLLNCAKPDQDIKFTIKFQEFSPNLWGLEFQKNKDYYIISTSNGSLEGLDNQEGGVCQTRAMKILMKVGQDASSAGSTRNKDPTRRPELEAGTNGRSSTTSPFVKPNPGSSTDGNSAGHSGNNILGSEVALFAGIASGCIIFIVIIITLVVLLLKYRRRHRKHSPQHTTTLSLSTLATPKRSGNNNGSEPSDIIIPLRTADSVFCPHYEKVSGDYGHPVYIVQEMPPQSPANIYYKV

Substance: ephrinB2 (from UniProt P52799)
- Kd: 0.06 nM
